Changes are numbered by the printed parent chain. Each block holds one binder with its values, some of them ahead of it.
Experiments:
GPRP-A80-I60 = target: T1, GPRP-A80-I60; assay: plate-based fluorescence binding assay
T1 chain: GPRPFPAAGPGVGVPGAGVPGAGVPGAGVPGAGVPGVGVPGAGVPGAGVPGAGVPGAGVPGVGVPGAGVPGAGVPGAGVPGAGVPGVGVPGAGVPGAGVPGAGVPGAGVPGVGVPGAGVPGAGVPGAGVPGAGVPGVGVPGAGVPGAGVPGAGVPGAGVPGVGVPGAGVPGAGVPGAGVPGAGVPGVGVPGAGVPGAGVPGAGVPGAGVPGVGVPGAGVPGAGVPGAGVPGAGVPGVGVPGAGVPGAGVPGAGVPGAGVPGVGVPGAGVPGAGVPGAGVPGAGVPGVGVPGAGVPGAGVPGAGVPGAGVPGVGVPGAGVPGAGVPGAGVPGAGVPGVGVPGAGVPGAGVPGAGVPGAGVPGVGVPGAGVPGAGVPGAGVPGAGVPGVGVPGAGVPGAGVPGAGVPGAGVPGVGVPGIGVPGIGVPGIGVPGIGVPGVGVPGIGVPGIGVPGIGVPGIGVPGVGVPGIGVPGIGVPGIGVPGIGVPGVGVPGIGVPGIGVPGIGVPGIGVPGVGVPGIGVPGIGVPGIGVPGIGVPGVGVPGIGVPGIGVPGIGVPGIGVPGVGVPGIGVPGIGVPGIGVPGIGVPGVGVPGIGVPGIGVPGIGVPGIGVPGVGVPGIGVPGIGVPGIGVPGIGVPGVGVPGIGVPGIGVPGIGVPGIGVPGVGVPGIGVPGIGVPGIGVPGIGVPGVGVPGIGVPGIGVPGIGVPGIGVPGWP

GPRP-P40-I60 = target: T2, GPRP-P40-I60; assay: plate-based fluorescence binding assay
T2 chain: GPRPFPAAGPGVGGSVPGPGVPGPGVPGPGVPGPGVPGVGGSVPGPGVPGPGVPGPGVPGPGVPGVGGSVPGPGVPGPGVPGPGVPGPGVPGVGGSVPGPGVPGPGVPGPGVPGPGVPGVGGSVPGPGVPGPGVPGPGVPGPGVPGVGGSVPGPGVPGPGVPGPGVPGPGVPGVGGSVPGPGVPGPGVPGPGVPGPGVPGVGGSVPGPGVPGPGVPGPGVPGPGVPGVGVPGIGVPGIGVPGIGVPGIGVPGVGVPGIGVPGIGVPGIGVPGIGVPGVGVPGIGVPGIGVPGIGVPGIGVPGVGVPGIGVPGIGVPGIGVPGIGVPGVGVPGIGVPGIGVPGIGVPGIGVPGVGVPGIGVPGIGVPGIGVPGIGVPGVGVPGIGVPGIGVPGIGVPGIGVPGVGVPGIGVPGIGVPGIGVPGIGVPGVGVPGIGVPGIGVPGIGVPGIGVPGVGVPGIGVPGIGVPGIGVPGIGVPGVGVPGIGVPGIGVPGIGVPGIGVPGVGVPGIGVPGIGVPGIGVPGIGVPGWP

GPRP-A80-I60-C = target: T3, GPRP-A80-I60-C; assay: ELISA
T3 chain: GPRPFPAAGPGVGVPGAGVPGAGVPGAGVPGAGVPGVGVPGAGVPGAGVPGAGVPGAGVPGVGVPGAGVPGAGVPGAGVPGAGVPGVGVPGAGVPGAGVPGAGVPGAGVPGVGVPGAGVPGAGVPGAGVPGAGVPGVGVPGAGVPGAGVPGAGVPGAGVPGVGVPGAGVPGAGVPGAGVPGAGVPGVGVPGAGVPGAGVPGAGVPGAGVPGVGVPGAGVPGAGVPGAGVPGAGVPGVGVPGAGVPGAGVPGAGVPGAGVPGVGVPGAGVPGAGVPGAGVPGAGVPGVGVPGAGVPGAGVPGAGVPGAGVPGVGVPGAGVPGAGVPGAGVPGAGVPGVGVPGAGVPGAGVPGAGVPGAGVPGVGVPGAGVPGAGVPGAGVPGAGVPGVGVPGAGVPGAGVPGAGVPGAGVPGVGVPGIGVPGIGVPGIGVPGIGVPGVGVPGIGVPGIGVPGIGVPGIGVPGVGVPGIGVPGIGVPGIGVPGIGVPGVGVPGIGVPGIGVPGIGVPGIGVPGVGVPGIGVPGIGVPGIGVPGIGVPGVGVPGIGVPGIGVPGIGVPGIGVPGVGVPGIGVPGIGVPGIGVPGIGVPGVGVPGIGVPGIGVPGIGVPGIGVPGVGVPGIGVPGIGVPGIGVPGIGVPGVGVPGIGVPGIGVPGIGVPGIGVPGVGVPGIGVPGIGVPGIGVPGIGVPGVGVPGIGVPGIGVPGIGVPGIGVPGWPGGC

GPRP-P40-I60-C = target: T4, GPRP-P40-I60-C; assay: ELISA
T4 chain: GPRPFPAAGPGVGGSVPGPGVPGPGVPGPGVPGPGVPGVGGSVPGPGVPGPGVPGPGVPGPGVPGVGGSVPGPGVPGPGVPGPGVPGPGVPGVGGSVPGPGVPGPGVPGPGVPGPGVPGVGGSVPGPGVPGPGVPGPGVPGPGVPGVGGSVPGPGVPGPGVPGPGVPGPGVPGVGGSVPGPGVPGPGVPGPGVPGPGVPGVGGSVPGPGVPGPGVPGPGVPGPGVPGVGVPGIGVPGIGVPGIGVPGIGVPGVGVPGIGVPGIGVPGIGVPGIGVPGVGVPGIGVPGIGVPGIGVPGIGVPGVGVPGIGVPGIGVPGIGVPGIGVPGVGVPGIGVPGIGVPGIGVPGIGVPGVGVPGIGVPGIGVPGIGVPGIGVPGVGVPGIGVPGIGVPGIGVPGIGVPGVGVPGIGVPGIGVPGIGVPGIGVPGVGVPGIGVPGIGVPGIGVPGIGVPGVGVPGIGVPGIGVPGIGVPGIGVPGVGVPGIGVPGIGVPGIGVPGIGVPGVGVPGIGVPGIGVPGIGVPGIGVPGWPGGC

binding result (GPRP-A80-I60): binds
binding result (GPRP-P40-I60): binds
B1: GPSP-P40-I60-C labelled with Alexa Fluor 488 or Alexa Fluor 546 (designed binder)
chain: T4 chain with R3S
modifications: Alexa Fluor 488 or Alexa Fluor 546 on the C-terminal cysteine (sulfhydryl-maleimide)

% normalized signal (GPRPFPAC-coated wells = 100 %), saturated wells (GPRP-A80-I60-C): > 100%
% normalized signal (GPRPFPAC-coated wells = 100 %), saturated wells (GPRP-P40-I60-C): > 100%
B2: fibrinogen, P02671 36-866; P02675 45-491; P02679 27-453 (complex)
chain 1: ADSGEGDFLAEGGGVRGPRVVERHQSACKDSDWPFCSDEDWNYKCPSGCRMKGLIDEVNQDFTNRINKLKNSLFEYQKNNKDSHSLTTNIMEILRGDFSSANNRDNTYNRVSEDLRSRIEVLKRKVIEKVQHIQLLQKNVRAQLVDMKRLEVDIDIKIRSCRGSCSRALAREVDLKDYEDQQKQLEQVIAKDLLPSRDRQHLPLIKMKPVPDLVPGNFKSQLQKVPPEWKALTDMPQMRMELERPGGNEITRGGSTSYGTGSETESPRNPSSAGSWNSGSSGPGSTGNRNPGSSGTGGTATWKPGSSGPGSTGSWNSGSSGTGSTGNQNPGSPRPGSTGTWNPGSSERGSAGHWTSESSVSGSTGQWHSESGSFRPDSPGSGNARPNNPDWGTFEEVSGNVSPGTRREYHTEKLVTSKGDKELRTGKEKVTSGSTTTTRRSCSKTVTKTVIGPDGHKEVTKEVVTSEDGSDCPEAMDLGTLSGIGTLDGFRHRHPDEAAFFDTASTGKTFPGFFSPMLGEFVSETESRGSESGIFTNTKESSSHHPGIAEFPSRGKSSSYSKQFTSSTSYNRGDSTFESKSYKMADEAGSEADHEGTHSTKRGHAKSRPV
chain 2: QGVNDNEEGFFSARGHRPLDKKREEAPSLRPAPPPISGGGYRARPAKAAATQKKVERKAPDAGGCLHADPDLGVLCPTGCQLQEALLQQERPIRNSVDELNNNVEAVSQTSSSSFQYMYLLKDLWQKRQKQVKDNENVVNEYSSELEKHQLYIDETVNSNIPTNLRVLRSILENLRSKIQKLESDVSAQMEYCRTPCTVSCNIPVVSGKECEEIIRKGGETSEMYLIQPDSSVKPYRVYCDMNTENGGWTVIQNRQDGSVDFGRKWDPYKQGFGNVATNTDGKNYCGLPGEYWLGNDKISQLTRMGPTELLIEMEDWKGDKVKAHYGGFTVQNEANKYQISVNKYRGTAGNALMDGASQLMGENRTMTIHNGMFFSTYDRDNDGWLTSDPRKQCSKEDGGGWWYNRCHAANPNGRYYWGGQYTWDMAKHGTDDGVVWMNWKGSWYSMRKMSMKIRPFFPQQ
chain 3: YVATRDNCCILDERFGSYCPTTCGIADFLSTYQTKVDKDLQSLEDILHQVENKTSEVKQLIKAIQLTYNPDESSKPNMIDAATLKSRKMLEEIMKYEASILTHDSSIRYLQEIYNSNNQKIVNLKEKVAQLEAQCQEPCKDTVQIHDITGKDCQDIANKGAKQSGLYFIKPLKANQQFLVYCEIDGSGNGWTVFQKRLDGSVDFKKNWIQYKEGFGHLSPTGTTEFWLGNEKIHLISTQSAIPYALRVELEDWNGRTSTADYAMFKVGPEADKYRLTYAYFAGGDAGDAFDGFDFGDDPSDKFFTSHNGMQFSTWDNDNDKFEGNCAEQDGSGWWMNKCHAGHLNGVYYQGGTYSKASTPNGYDNGIIWATWKTRWYSMKKTTMKIIPFNRLTIGEGQQHHLGGAKQAGDV
modifications: not checked
